Laboratory results: patent publication US20260201008A1, “SECRETIN-DERIVED GLP1R SELECTIVE AGONISTS” (GUBRA A/S, priority 2023, published 2026)
Like-named read-outs stand apart in the source and are kept apart here. Square brackets hold non-standard residues; d marks the D form. Ends that are not written are not given here. Aib = CC(C)(N)C(=O)O

Assays:
[1] = biological target: GLP1R (Homo sapiens, UniProt P43220); settings: prior art value; cited from earlier work
[2] = biological target: SCTR (Homo sapiens, UniProt P47872); settings: prior art value; cited from earlier work
[3] = biological target: T1, human secretin receptor (hSCTR) (human, UniProt P47872 23-440); assay: cell-based or functional assay
[4] = biological target: T2, human GLP-1 receptor (hGLP1R) (human, UniProt P43220 24-463); assay: cell-based or functional assay
[5] = biological target: T1, human secretin receptor (hSCTR); assay: cell-based or functional assay; remark: listed apart in the source
[6] = biological target: T2, human GLP-1 receptor (hGLP1R); assay: cell-based or functional assay; remark: listed apart in the source

T1 sequence (P47872 23-440): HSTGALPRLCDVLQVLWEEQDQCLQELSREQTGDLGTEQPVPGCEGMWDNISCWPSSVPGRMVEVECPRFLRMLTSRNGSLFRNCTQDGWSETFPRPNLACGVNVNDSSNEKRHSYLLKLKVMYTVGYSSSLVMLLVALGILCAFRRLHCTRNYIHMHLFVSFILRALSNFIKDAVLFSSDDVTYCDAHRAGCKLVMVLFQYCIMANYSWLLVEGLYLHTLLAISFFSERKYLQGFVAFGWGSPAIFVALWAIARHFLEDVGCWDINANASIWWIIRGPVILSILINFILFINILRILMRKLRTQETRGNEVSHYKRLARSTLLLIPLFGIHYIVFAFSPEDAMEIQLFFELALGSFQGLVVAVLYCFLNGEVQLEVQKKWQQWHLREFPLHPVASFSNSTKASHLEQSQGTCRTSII
Chain of SCTR (P47872 23-440, species assumed): as the sequence (P47872 23-440) above
Chain of GLP1R (P43220 24-463, species assumed): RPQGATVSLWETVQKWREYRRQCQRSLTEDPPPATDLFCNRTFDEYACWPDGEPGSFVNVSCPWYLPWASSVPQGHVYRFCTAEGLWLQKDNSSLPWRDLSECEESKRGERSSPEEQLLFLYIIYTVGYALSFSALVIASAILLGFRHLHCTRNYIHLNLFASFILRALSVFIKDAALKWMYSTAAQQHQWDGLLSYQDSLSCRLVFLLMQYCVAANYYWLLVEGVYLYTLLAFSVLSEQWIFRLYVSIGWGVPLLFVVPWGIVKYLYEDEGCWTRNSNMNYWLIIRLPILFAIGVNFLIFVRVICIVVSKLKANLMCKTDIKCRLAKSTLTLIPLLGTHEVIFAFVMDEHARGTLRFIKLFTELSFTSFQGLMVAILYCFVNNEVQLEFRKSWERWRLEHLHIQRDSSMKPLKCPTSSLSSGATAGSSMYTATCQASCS

H-Aib-EGTFTSDLSRLLEGAALQRFIQWLV (H[Aib]EGTFTSDLSRLLEGAALQRFIQWLV-NH2; N-terminus assumed; SMILES CC[C@H](C)[C@H](NC(=O)[C@H](Cc1ccccc1)NC(=O)[C@H](CCCNC(=N)N)NC(=O)[C@H](CCC(N)=O)NC(=O)[C@H](CC(C)C)NC(=O)[C@H](C)NC(=O)[C@H](C)NC(=O)CNC(=O)[C@H](CCC(=O)O)NC(=O)[C@H](CC(C)C)NC(=O)[C@H](CC(C)C)NC(=O)[C@H](CCCNC(=N)N)NC(=O)[C@H](CO)NC(=O)[C@H](CC(C)C)NC(=O)[C@H](CC(=O)O)NC(=O)[C@H](CO)NC(=O)[C@@H](NC(=O)[C@H](Cc1ccccc1)NC(=O)[C@@H](NC(=O)CNC(=O)[C@H](CCC(=O)O)NC(=O)C(C)(C)NC(=O)[C@@H](N)Cc1c[nH]cn1)[C@@H](C)O)[C@@H](C)O)C(=O)N[C@@H](CCC(N)=O)C(=O)N[C@@H](Cc1c[nH]c2ccccc12)C(=O)N[C@@H](CC(C)C)C(=O)N[C@H](C(N)=O)C(C)C) [SEQ ID NO: 216, prior art SCTR/GLP1R co-agonist (Witteloostuijn, 2017)]
EC50 [1]: 0.12 nM
EC50 [2]: 1.3 nM

B1: SEQ ID NO: 216 (GUB06-046) (peptide)
peptide: H[Aib]EGTFTSDLSRLLEGAALQRFIQWLV-NH2
modifications: N-terminus assumed
SMILES: CC[C@H](C)[C@H](NC(=O)[C@H](Cc1ccccc1)NC(=O)[C@H](CCCNC(=N)N)NC(=O)[C@H](CCC(N)=O)NC(=O)[C@H](CC(C)C)NC(=O)[C@H](C)NC(=O)[C@H](C)NC(=O)CNC(=O)[C@H](CCC(=O)O)NC(=O)[C@H](CC(C)C)NC(=O)[C@H](CC(C)C)NC(=O)[C@H](CCCNC(=N)N)NC(=O)[C@H](CO)NC(=O)[C@H](CC(C)C)NC(=O)[C@H](CC(=O)O)NC(=O)[C@H](CO)NC(=O)[C@@H](NC(=O)[C@H](Cc1ccccc1)NC(=O)[C@@H](NC(=O)CNC(=O)[C@H](CCC(=O)O)NC(=O)C(C)(C)NC(=O)[C@@H](N)Cc1c[nH]cn1)[C@@H](C)O)[C@@H](C)O)C(=O)N[C@@H](CCC(N)=O)C(=O)N[C@@H](Cc1c[nH]c2ccccc12)C(=O)N[C@@H](CC(C)C)C(=O)N[C@H](C(N)=O)C(C)C
pEC50 hSCTR [3]: 9.3 -log M
pEC50 hGLPR1 [4]: 10.4 -log M
pEC50 hSCTR [5]: 9.3 -log M
pEC50 hGLPR1 [6]: 10.4 -log M
